What was measured:
[1] = target: T1, human CTLA-4 (Y166G and Y183G) expressed on CHO-K1.hCTLA-4 cells (human, UniProt P16410 36-223); assay: CELISA on CHO-K1.hCTLA-4 cells
Procedure: Binding of the humanized antibodies to hCTLA-4 was studied in CELISA format. CHO-K1.hCTLA-4 cells were seeded in culture medium (DMEM-F12 (Gibco) with 10% Fetal Bovine Serum (Hyclone) and Pen/Strep (Gibco)) in tissue culture plates and cultured at 37° C., 5% CO₂ and 95% humidity until they were confluent. Subsequently, culture medium was removed and cells were incubated for 1 hour at 37° C., 5% CO₂ and 95% humidity with purified hCTLA-4 antibodies (10 μg/ml and dilutions thereof). Next, cells were washed with PBS/0.05% Tween (PBST) and incubated for 1 hour at 37° C., 5% CO₂ and 95% humidity with goat-anti-human IgG-HRP (Southern Biotechnology) or goat-anti-mouse IgG-HRP (Southern Biotechnology). Subsequently, cells were washed 3 times with PBST and anti-hCTLA-4 immunoreactivity was visualized with TMB Stabilized Chromagen (Invitrogen). Reactions were stopped with 0.5 M H₂SO₄ and absorbances were read at 450 and 610 nm.

[2] = target: T1, human CTLA-4 (Y166G and Y183G) …; assay: CELISA, blockade of biotinylated hCD80/Fc binding to CHO-K1.hCTLA-4 cells
Procedure: CHO-K1.hCTLA-4 cells were seeded in tissue culture plates and incubated at 37° C., 5% CO₂ and 95% humidity in culture medium. Once the cells were confluent culture medium was removed and cells were incubated for 1 hour with the humanized hCTL4.27 antibody variants (10 μg/ml and dilutions thereof) at 37° C., 5% CO₂ and 95% humidity. […] Cells were then washed with PBST followed by addition of Streptavidin-HRP conjugate on the cells, which was incubated for 1 hour at 37° C., 5% CO₂ and 95% humidity. […] Reactions were stopped with 0.5 M H₂SO₄ and absorbances were read at 450 and 610 nm. […] IC50 values represent the concentration at which half of the inhibition is observed.

T1 sequence (P16410 36-223 Y201G/Y218G limits assumed): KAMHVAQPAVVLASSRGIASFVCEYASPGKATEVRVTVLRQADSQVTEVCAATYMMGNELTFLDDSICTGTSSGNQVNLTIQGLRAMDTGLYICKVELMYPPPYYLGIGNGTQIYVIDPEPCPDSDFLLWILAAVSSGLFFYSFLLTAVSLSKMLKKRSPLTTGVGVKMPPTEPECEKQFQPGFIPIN

Binder | EC50 [1] | IC50 [2]
hCTLA4.27H1L1 (antibody, human IgG4 S228P, kappa, V domains shown, Humanized, human IgG4 (S228P) kappa; H1 read as hCTLA4.27VH1, L1 as hCTLA4.27VL1) VH: EVQLLQSGAVLARPGTSVKISCKASGYSFTTYWMNWVKQRPGQGLEWIGMIHPSDSETSLNQAFKDKAKLTAATSASIAYLEFSSLTNEDSAVYYCARMGRRNPYYFDYWGQGTLVTVSS VL: DIQMTQSPSSLSASVGDRVTITCRPSENLYTNLAWYQQKPGKAPKLLLYGATNLADGVPSRFSGSGSGTDYTLTISSLQPEDFATYYCQHLWGTPFTFGQGTKLEIKR | 0.037 nM | 2.55 nM
hCTLA4.27H3L1 (antibody, human IgG4 S228P, kappa, V domains shown, Humanized, human IgG4 (S228P) kappa; H3 read as hCTLA4.27VH3, L1 as hCTLA4.27VL1) VH: EVQLVQSGAVVAKPGSSVKVSCKASGYSFTTYWMNWVRQAPGQGLEWMGMIHPSDSETSLNQAFKDRVTITADKSTSTAYMELSSLTSEDTAVYYCARMGRRNPYYFDYWGQGTTVTVSS VL: DIQMTQSPSSLSASVGDRVTITCRPSENLYTNLAWYQQKPGKAPKLLLYGATNLADGVPSRFSGSGSGTDYTLTISSLQPEDFATYYCQHLWGTPFTFGQGTKLEIKR | 0.07 nM | 2.52 nM
hCTLA4.27H5L1 (antibody, human IgG4 S228P, kappa, V domains shown, Humanized, human IgG4 (S228P) kappa; H5 read as hCTLA4.27VH5, L1 as hCTLA4.27VL1) VH: EVQLLQAGAVLARPGTSVKISCKASGYSFTTYWMNWVKQRPGKGLEWIGMIHPSDSETSLNQAFKDKAKLTAATSASIAYLEFSSLTNEDSAVYYCARIGRRNPYYFDYWGQGTLVTVSS VL: DIQMTQSPSSLSASVGDRVTITCRPSENLYTNLAWYQQKPGKAPKLLLYGATNLADGVPSRFSGSGSGTDYTLTISSLQPEDFATYYCQHLWGTPFTFGQGTKLEIKR | 0.029 nM | 5.39 nM
hCTLA4.27H6L5 (antibody, human IgG4 S228P, kappa, V domains shown, Humanized, human IgG4 (S228P) kappa; H6 read as hCTLA4.27VH6, L5 as hCTLA4.27VL5) VH: EVQLLESGPELVRPGSSVKISCKASGYSFTTYWMNWVKQRPGKGLEWIGMIHPSDSETSLNQAFKDKVKLTAATSASIAYLEFSSLRNEDSAVYYCARMGRRNPYYFDYWGQGTLVTVSS VL: DIQMTQAPSSLSASVGDRVTITCRPSENLYTNLAWYQQKPGKAPKLLLYGATNLADGVPSRFSGSGSGTDYTLTISSLQAEDFATYYCQHLWGTPFTFGGGTKLEIKR | 0.036 nM | 2.57 nM
hCTLA4.27H5L2 (antibody, human IgG4 S228P, kappa, V domains shown, Humanized, human IgG4 (S228P) kappa; H5 read as hCTLA4.27VH5, L2 as hCTLA4.27VL2) VH: EVQLLQAGAVLARPGTSVKISCKASGYSFTTYWMNWVKQRPGKGLEWIGMIHPSDSETSLNQAFKDKAKLTAATSASIAYLEFSSLTNEDSAVYYCARIGRRNPYYFDYWGQGTLVTVSS VL: DIQMTQSPSSLSASVGDRVTITCRPSENLYTNLAWYQQKPGKAPKLLIYGATNLADGVPSRFSGSGSGTEFSLSISSLQPEDFATYYCQHLWGTPFTFGGGTKVEIKR | 0.042 nM | 10.3 nM
hCTLA4.27H6L1 (antibody, human IgG4 S228P, kappa, V domains shown, Humanized, human IgG4 (S228P) kappa; H6 read as hCTLA4.27VH6, L1 as hCTLA4.27VL1) VH: EVQLLESGPELVRPGSSVKISCKASGYSFTTYWMNWVKQRPGKGLEWIGMIHPSDSETSLNQAFKDKVKLTAATSASIAYLEFSSLRNEDSAVYYCARMGRRNPYYFDYWGQGTLVTVSS VL: DIQMTQSPSSLSASVGDRVTITCRPSENLYTNLAWYQQKPGKAPKLLLYGATNLADGVPSRFSGSGSGTDYTLTISSLQPEDFATYYCQHLWGTPFTFGQGTKLEIKR | 0.044 nM | 2.06 nM
hCTLA4.27H1L3 (antibody, human IgG4 S228P, kappa, V domains shown, Humanized, human IgG4 (S228P) kappa; H1 read as hCTLA4.27VH1, L3 as hCTLA4.27VL3) VH: EVQLLQSGAVLARPGTSVKISCKASGYSFTTYWMNWVKQRPGQGLEWIGMIHPSDSETSLNQAFKDKAKLTAATSASIAYLEFSSLTNEDSAVYYCARMGRRNPYYFDYWGQGTLVTVSS VL: DIQMTQSPSSLSASVGDTVTITCRPSENLYTNLAWYQQKPGKAPKLLLYGATNLADGVPSRFSGSGSGTDYTLTISSLQSEDFATYYCQHLWGTPFTFGQGTKLEIKR | 0.045 nM | 3.13 nM
hCTLA4.27H1L5 (antibody, human IgG4 S228P, kappa, V domains shown, Humanized, human IgG4 (S228P) kappa; H1 read as hCTLA4.27VH1, L5 as hCTLA4.27VL5) VH: EVQLLQSGAVLARPGTSVKISCKASGYSFTTYWMNWVKQRPGQGLEWIGMIHPSDSETSLNQAFKDKAKLTAATSASIAYLEFSSLTNEDSAVYYCARMGRRNPYYFDYWGQGTLVTVSS VL: DIQMTQAPSSLSASVGDRVTITCRPSENLYTNLAWYQQKPGKAPKLLLYGATNLADGVPSRFSGSGSGTDYTLTISSLQAEDFATYYCQHLWGTPFTFGGGTKLEIKR | 0.046 nM | 3.44 nM
hCTLA4.27H5L5 (antibody, human IgG4 S228P, kappa, V domains shown, Humanized, human IgG4 (S228P) kappa; H5 read as hCTLA4.27VH5, L5 as hCTLA4.27VL5) VH: EVQLLQAGAVLARPGTSVKISCKASGYSFTTYWMNWVKQRPGKGLEWIGMIHPSDSETSLNQAFKDKAKLTAATSASIAYLEFSSLTNEDSAVYYCARIGRRNPYYFDYWGQGTLVTVSS VL: DIQMTQAPSSLSASVGDRVTITCRPSENLYTNLAWYQQKPGKAPKLLLYGATNLADGVPSRFSGSGSGTDYTLTISSLQAEDFATYYCQHLWGTPFTFGGGTKLEIKR | 0.035 nM | 1.91 nM

More lines, now with the values ahead:

EC50 [1] | IC50 [2] | Binder
0.042 nM | 2.98 nM | hCTLA4.27H2L1 (antibody, human IgG4 S228P, kappa, V domains shown, Humanized, human IgG4 (S228P) kappa; H2 read as hCTLA4.27VH2, L1 as hCTLA4.27VL1) VH: EVQLVQSGAVLVKPGASVKVSCKASGYSFTTYWMNWVRQRPGKGLEWIGMIHPSDSETSLNQAFKDKVTITADESTSTAYMQLSSLRSEDTAVYYCARMGRRNPYYFDYWGQGTTVTVSS VL: DIQMTQSPSSLSASVGDRVTITCRPSENLYTNLAWYQQKPGKAPKLLLYGATNLADGVPSRFSGSGSGTDYTLTISSLQPEDFATYYCQHLWGTPFTFGQGTKLEIKR
0.028 nM | 1.82 nM | hCTLA4.27H6L3 (antibody, human IgG4 S228P, kappa, V domains shown, Humanized, human IgG4 (S228P) kappa; H6 read as hCTLA4.27VH6, L3 as hCTLA4.27VL3) VH: EVQLLESGPELVRPGSSVKISCKASGYSFTTYWMNWVKQRPGKGLEWIGMIHPSDSETSLNQAFKDKVKLTAATSASIAYLEFSSLRNEDSAVYYCARMGRRNPYYFDYWGQGTLVTVSS VL: DIQMTQSPSSLSASVGDTVTITCRPSENLYTNLAWYQQKPGKAPKLLLYGATNLADGVPSRFSGSGSGTDYTLTISSLQSEDFATYYCQHLWGTPFTFGQGTKLEIKR
0.04 nM | 2.72 nM | hCTLA4.27H1L2 (antibody, human IgG4 S228P, kappa, V domains shown, Humanized, human IgG4 (S228P) kappa; H1 read as hCTLA4.27VH1, L2 as hCTLA4.27VL2) VH: EVQLLQSGAVLARPGTSVKISCKASGYSFTTYWMNWVKQRPGQGLEWIGMIHPSDSETSLNQAFKDKAKLTAATSASIAYLEFSSLTNEDSAVYYCARMGRRNPYYFDYWGQGTLVTVSS VL: DIQMTQSPSSLSASVGDRVTITCRPSENLYTNLAWYQQKPGKAPKLLIYGATNLADGVPSRFSGSGSGTEFSLSISSLQPEDFATYYCQHLWGTPFTFGGGTKVEIKR
0.051 nM | 2.97 nM | hCTLA4.27H2L3 (antibody, human IgG4 S228P, kappa, V domains shown, Humanized, human IgG4 (S228P) kappa; H2 read as hCTLA4.27VH2, L3 as hCTLA4.27VL3) VH: EVQLVQSGAVLVKPGASVKVSCKASGYSFTTYWMNWVRQRPGKGLEWIGMIHPSDSETSLNQAFKDKVTITADESTSTAYMQLSSLRSEDTAVYYCARMGRRNPYYFDYWGQGTTVTVSS VL: DIQMTQSPSSLSASVGDTVTITCRPSENLYTNLAWYQQKPGKAPKLLLYGATNLADGVPSRFSGSGSGTDYTLTISSLQSEDFATYYCQHLWGTPFTFGQGTKLEIKR
0.042 nM | 2.57 nM | hCTLA4.27H5L3 (antibody, human IgG4 S228P, kappa, V domains shown, Humanized, human IgG4 (S228P) kappa; H5 read as hCTLA4.27VH5, L3 as hCTLA4.27VL3) VH: EVQLLQAGAVLARPGTSVKISCKASGYSFTTYWMNWVKQRPGKGLEWIGMIHPSDSETSLNQAFKDKAKLTAATSASIAYLEFSSLTNEDSAVYYCARIGRRNPYYFDYWGQGTLVTVSS VL: DIQMTQSPSSLSASVGDTVTITCRPSENLYTNLAWYQQKPGKAPKLLLYGATNLADGVPSRFSGSGSGTDYTLTISSLQSEDFATYYCQHLWGTPFTFGQGTKLEIKR
0.065 nM | 2.06 nM | hCTLA4.27H3L2 (antibody, human IgG4 S228P, kappa, V domains shown, Humanized, human IgG4 (S228P) kappa; H3 read as hCTLA4.27VH3, L2 as hCTLA4.27VL2) VH: EVQLVQSGAVVAKPGSSVKVSCKASGYSFTTYWMNWVRQAPGQGLEWMGMIHPSDSETSLNQAFKDRVTITADKSTSTAYMELSSLTSEDTAVYYCARMGRRNPYYFDYWGQGTTVTVSS VL: DIQMTQSPSSLSASVGDRVTITCRPSENLYTNLAWYQQKPGKAPKLLIYGATNLADGVPSRFSGSGSGTEFSLSISSLQPEDFATYYCQHLWGTPFTFGGGTKVEIKR
